Test results: patent US7473541B2, “Identification, cloning, expression, and purification of three novel human calcium-independent phospholipase A2 family members possessing triacylglycerol lipase and acylglycerol transacylase activities” (priority 2004, dated 2009)
Entries after “also recorded” stand apart in the source; their conditions may differ.

B1: iPLA2eta(His)6: recombinant human calcium-independent phospholipase A2 eta (GS2, SEQ ID NO: 3) expressed in Sf9 cells (protein, listed as Homo sapiens)
chain: MKHINLSFAACGFLGIYHLGAASALCRHGKKLVKDVKAFAGASAGFTSLVASVLLTAPEKIEECNQFTYKFAEEIRRQSFGAVTPGYDFMARLRSGMESILPPSAHFTELAQNRLHVSITNAKTRENHLVSTFSSREDLIKVLLASSFVPIYAGLKLVEYKGQKWVDFTGGLTNALPILPVGRTVTISPFSGRLDISPQDKGQLDLYVNIAKQDIMLSLANLVRLNQAFTLFPPSKRKMESLYQCGFDDTVKFLLKENWFEHHHHHH
modifications: C-terminal His6 tag
B2: iPLA2zeta(His)6: recombinant human calcium-independent phospholipase A2 zeta (TTS-2.2, SEQ ID NO: 2) expressed in Sf9 cells (protein, listed as Homo sapiens)
chain: MFPREKTWNISFAGCGFLGVYYVGVASCLREHAPFLVANATHIYGASAGALTATALVTGVCLGEAGAKFIEVSKEARKRFLGPLHPSFNLVKIIRSFLLKVLPADSHEHASGRLGISLTRVSDGENVIISHFNSKDELIQANVCSGFIPVYCGLIPPSLQGVRYVDGGISDNLPLYELKNTITVSPFSGESDICPQDSSTNIHELRVTNTSIQFNLRNLYRLSKALFPPEPLVLREMCKQGYRDGLRFLQRNGLLNRPNPLLALPPARPHGPEDKDQAVESAQAEDYSQLPGEDHILEHLPARLNEALLEACVEPTDLLTTLSNMLPVRLATAMMVPYTLPLESALSFTIRLLEWLPDVPEDIRWMKEQTGSICQYLVMRAKRKLGRHLPSRLPEQVELRRVQSLPSVPLSCAAYREALPGWMRNNLSLGDALAKWEECQRQLLLGLFCTNVAFPPEALRMRAPADPAPAPADPASPQHQPAGPAPLLSTPAPEARPVIGALGLHHHHHH
modifications: C-terminal His6 tag
B3: iPLA2epsilon(His)6: recombinant human calcium-independent phospholipase A2 epsilon (adiponutrin, SEQ ID NO: 1) expressed in Sf9 cells (protein, listed as Homo sapiens)
chain: MYDAERGWSLSFAGCGFLGFYHVGATRCLSEHAPHLLRDARMLFGASAGALHCVGVLSGIPLEQTLQVLSDLVRKARSRNIGIFHPSFNLSKFLRQGLCKCLPANVHQLISGKIGISLTRVSDGENVLVSDFRSKDEVVDALVCSCFIPFYSGLIPPSFRGVRYVDGGVSDNVPFIDAKTTITVSPFYGEYDICPKVKSTNFLHVDITKLSLRLCTGNLYLLSRAFVPPDLKVLGEICLRGYLDAFRFLEEKGICNRPQPGLKSSSEGMDPEVAMPSWANMSLDSSPESAALAVRLEGDELLDHLRLSILPWDESILDTLSPRLATALSEEMKDKGGYMSKICNLLPIRIMSYVMLPCTLPVESAIAIVQRLVTWLPDMPDDVLWLQWVTSQVFTRVLMCLLPASRSQMPVSSQQASPCTPEQDWPCWTPCSPEGCPAETKAEATPRSILRSSLNFFLGNKVPAGAEGLSTFPSFSLEKSLHHHHHH
modifications: C-terminal His6 tag

Legend:
Format in all cases: biochemical
[1] = Assay for calcium-independent phospholipase A2 activity of recombinant enzymes; conditions: for calcium-independent PLA2 activity: Sf9 cytosol and membrane fractions, 1-palmitoyl-2-[1-14C]-oleoyl-sn-glycerol-3-phosphocholine, relative to control; for PLA2 hydrolysis rate: affinity purified, 30 min
Source text: […] Reactions were terminated by addition of 100 microliters of butanol and extraction of the radiolabeled product and remaining substrate into the butanol layer by vigorous vortexing. Samples were spotted on LK6 Silica Gel 60 Å TLC plates, overlaid with oleic acid standard, dried, and developed in petroleum etherlethyl etherlacetic acid (70:30:1). The region of the plate corresponding to the oleic acid standard (visualized by iodine staining) was scraped into scintillation vials and quantified by liquid scintillation spectrometry.

[2] = Assay for acylglycerol transacylase activity; conditions: affinity purified
Method: Assay for Acylglycerol Transacylase Activity—Highly purified CO^2+-TALON affinity chromatographic fractions containing iPLA2epsilon(His)6 (6xHis tag disclosed as SEQ ID NO: 29), iPLA2zeta(His)6 (6xHis tag disclosed as SEQ ID NO: 29) or iPLA2eta(His)6 (6xHis tag disclosed as SEQ ID NO: 29) (40 microliters) were incubated in 85 mM potassium phosphate, pH 7.0 (200 microliters final volume) for 15 mm at 37° C. in the presence of 10 microM [1-^14-C]-mono-olein (acyl donor), 25 microM acyl acceptor (mono-olein or diolein), 25 microM egg yolk lecithin, and 25 microM sodium taurocholate. After extraction of radiolabeled reaction products and remaining substrate into butanol, samples were spotted on TLC plates, overlaid with trileiddiolein standards, dried, and developed in petroleum etherlethyl etherlacetic acid (75:25:1). The regions of the plate corresponding to either the diolein, triolein, and fatty acid standards (visualized by iodine staining) were scraped into scintillation vials and quantified by liquid scintillation spectrometry.

[3] = Assay for triolein lipase activity of recombinant enzymes; conditions: for triolein lipase specific activity: peak fractions from Co2+ TALON affinity column
Method: Assay for Triolein Lipase Activity—Sample fractions were incubated in 85 mM potassium phosphate, pH 7.0 containing 2 mM EDTA and 2 mM DTT for 15 min at 37° C. in the presence of a suspension of 100 microM [9,10-^3H(N)]-triolein (100 microCi/micromol) in 25 microM egg yolk lecithin, and 100 microM sodium taurocholate. In some reactions, BEL was added at the indicated concentrations and incubated with enzyme at room temperature for 3 min prior to the addition of radiolabeled substrate. After extraction of radiolabeled reaction products and remaining substrate into butanol, samples were spotted on TLC plates, overlaid with oleic acid standard, dried, and developed in chloroformlmethanol/NH4OH (65:25:5). The region of the plate corresponding to the oleic acid standard (visualized by iodine staining) was scraped into scintillation vials and quantified by liquid scintillation spectrometry.

[4] = 1-palmitoyl-2-[1-14C]-arachidonyl-sn-glycerol-3-phosphocholine
[5] = 1-palmitoyl-2-[1-14C]-linoleoyl-sn-glycerol-3-phosphocholine

Row | Molecule | calcium-independent PLA2 activity [1] | PLA2 hydrolysis rate [1, 4] | PLA2 hydrolysis rate [1, 5] | transacylation specific activity relative to iPLA2epsilon(His)6 and iPLA2zeta(His)6 [2] | triolein lipase specific activity relative to iPLA2epsilon(His)6 and iPLA2zeta(His)6 ([3]; Sf9 fractions, normalised to immunoreactive protein) | triolein lipase specific activity [3]
1 | B1 | did not yield detectable amounts; also recorded: did not display measurable iPLA2 activity | 134±42 pmol arachidonic acid·min^31 1·mg protein^−1 | 77±23 pmol linoleic acid·min^−1·mg protein^−1 | approximately 10 fold | 5-10 fold | 52 nmol oleic acid·min^−1·mg^−1 protein
2 | B2 | did not yield detectable amounts; also recorded: did not display measurable iPLA2 activity | 119±6 pmol arachidonic acid·min^31 1·mg protein^−1 | 57±19 pmol linoleic acid·min^−1·mg protein^−1 |  |  | 9 nmol oleic acid·min^−1·mg^−1 protein
3 | B3 | 20-50 pmol·min^−1·mg protein^−1 | 100±4 pmol arachidonic acid·min^31 1·mg protein^−1 | 57±3 pmol linoleic acid·min^−1·mg protein^−1 |  |  | 8 nmol oleic acid·min^−1·mg^−1 protein
